This is an account of results in paper PMC2582393 (Developmental cell, 2008).

Positions count from the first letter of the chain named.

To fix the notation:
T1: GST-CDC-48.3 (N+D1), amino acids 1-441 (C. elegans, UniProt Q21222 1-441)
T1 sequence (looked up): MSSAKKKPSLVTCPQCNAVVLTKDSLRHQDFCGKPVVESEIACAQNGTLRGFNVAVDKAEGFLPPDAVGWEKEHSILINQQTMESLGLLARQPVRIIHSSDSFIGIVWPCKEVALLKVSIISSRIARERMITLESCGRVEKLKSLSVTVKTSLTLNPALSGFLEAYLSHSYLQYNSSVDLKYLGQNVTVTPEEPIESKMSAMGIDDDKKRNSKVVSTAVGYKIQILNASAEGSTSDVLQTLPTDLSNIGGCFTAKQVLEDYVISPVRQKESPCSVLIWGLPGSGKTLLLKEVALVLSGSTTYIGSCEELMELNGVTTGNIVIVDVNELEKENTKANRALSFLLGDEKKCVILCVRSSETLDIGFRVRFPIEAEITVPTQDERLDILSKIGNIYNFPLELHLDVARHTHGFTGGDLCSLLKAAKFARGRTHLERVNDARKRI

T2: GST-CDC-48.3 full-length (FL), amino acids 1-724 (C. elegans, UniProt Q21222 1-724)
T2 sequence (looked up): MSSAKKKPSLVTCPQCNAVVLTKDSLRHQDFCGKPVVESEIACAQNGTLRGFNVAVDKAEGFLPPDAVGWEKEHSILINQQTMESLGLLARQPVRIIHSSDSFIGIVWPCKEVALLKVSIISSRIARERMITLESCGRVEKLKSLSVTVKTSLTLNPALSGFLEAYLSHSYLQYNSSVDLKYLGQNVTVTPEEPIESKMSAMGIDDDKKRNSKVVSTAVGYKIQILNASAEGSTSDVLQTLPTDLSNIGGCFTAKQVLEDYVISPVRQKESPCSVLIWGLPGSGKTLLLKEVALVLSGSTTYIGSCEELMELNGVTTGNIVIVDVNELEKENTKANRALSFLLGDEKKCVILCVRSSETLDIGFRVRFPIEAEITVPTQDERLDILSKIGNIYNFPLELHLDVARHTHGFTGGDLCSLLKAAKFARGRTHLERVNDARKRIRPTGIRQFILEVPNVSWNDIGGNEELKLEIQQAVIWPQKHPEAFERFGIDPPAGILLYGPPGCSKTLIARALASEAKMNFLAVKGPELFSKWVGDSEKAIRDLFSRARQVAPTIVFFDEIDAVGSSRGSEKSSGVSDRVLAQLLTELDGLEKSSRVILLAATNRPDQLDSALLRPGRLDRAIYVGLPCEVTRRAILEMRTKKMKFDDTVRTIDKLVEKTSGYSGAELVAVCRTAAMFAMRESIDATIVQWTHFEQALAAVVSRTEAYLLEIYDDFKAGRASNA

T3: GST-CDC-48.3 (N+D1) K285T (C. elegans, UniProt Q21222 1-441, K285T)
T3 sequence (looked up): T1 sequence (looked up) with K285T

B1: AIR-2 (C. elegans Aurora B kinase), recombinant, GST tag removed (enzyme, UniProt O01427 1-305, looked up)
chain: MENKPPVINLPEKETVNTPQKGGKFTINDFEIGRPLGKGKFGSVYLARTKTGHFHVAIKVLFKSQLISGGVEHQLEREIEIQSHLNHPNIIKLYTYFWDAKKIYLVLEYAPGGEMYKQLTVSKRFSEPTAAKYMYEIADALSYCHRKNVIHRDIKPENLLIGSQGELKIGDFGWSVHAPSNKRQTMCGTMDYLPPEMVNGADHSDAVDLWAIGVLCYEFLVGKPPFEHEDQSKTYAAIKAARFTYPDSVKKGARDLIGRLLVVDPKARCTLEQVKEHYWIQGMMEAKIRAEKQQKIEKEASLRNH
B2: GST-CDC-48.3 N (amino acids 1-225) (domain or fragment, C. elegans, UniProt Q21222 1-225, looked up)
chain: MSSAKKKPSLVTCPQCNAVVLTKDSLRHQDFCGKPVVESEIACAQNGTLRGFNVAVDKAEGFLPPDAVGWEKEHSILINQQTMESLGLLARQPVRIIHSSDSFIGIVWPCKEVALLKVSIISSRIARERMITLESCGRVEKLKSLSVTVKTSLTLNPALSGFLEAYLSHSYLQYNSSVDLKYLGQNVTVTPEEPIESKMSAMGIDDDKKRNSKVVSTAVGYKIQI

What all share (assay): pull-down
The target in test [1] is T1, GST-CDC-48.3 (N+D1), amino acids 1-441.
In test [2] the target is T2, GST-CDC-48.3 full-length (FL), amino ….
The target in test [3] is T3, GST-CDC-48.3 (N+D1) K285T.
For test [4], the target named is B1.

As for B1, the binding result in test [1], in test [2] and in test [3] was “binds” throughout.
As to B2, in test [4], the binding result is on record as “binds”.
